Assay results as given in US20220040319A1 (Regeneron, published 2022).
Read-outs that look alike come from different tables or passages of the source.

Assays:
[1] = target: T1, hMet.mmh (human MET extracellular domain with C-terminal myc-myc-hexahistidine tag) (human, UniProt P08581 309-914; P08581 27-307); assay: SPR 37C, antibody captured
T1 construct: soluble monomeric MET; also called monomeric human MET
Method: (§1) The anti-Met antibodies tested in this example were bivalent monospecific binders of MET.
(§2) Kinetic association (kₐ) and dissociation (kd) rate constants were determined by fitting the real-time sensorgrams to a 1:1 binding model using Scrubber 2.0c curve fitting software. Binding dissociation equilibrium constant (KD) and dissociative half-life (t1/2) were calculated from the kinetic rate constants as: […]

[2] = target: T2, hMET.mFc (dimeric human MET) (human, UniProt P08581 27-307); assay: SPR 37C, antibody captured
T2 construct: soluble dimeric MET protein
T2 sequence (P08581 other isoform, or with tags, fused parts or gaps limits assumed, chain 1 of 2): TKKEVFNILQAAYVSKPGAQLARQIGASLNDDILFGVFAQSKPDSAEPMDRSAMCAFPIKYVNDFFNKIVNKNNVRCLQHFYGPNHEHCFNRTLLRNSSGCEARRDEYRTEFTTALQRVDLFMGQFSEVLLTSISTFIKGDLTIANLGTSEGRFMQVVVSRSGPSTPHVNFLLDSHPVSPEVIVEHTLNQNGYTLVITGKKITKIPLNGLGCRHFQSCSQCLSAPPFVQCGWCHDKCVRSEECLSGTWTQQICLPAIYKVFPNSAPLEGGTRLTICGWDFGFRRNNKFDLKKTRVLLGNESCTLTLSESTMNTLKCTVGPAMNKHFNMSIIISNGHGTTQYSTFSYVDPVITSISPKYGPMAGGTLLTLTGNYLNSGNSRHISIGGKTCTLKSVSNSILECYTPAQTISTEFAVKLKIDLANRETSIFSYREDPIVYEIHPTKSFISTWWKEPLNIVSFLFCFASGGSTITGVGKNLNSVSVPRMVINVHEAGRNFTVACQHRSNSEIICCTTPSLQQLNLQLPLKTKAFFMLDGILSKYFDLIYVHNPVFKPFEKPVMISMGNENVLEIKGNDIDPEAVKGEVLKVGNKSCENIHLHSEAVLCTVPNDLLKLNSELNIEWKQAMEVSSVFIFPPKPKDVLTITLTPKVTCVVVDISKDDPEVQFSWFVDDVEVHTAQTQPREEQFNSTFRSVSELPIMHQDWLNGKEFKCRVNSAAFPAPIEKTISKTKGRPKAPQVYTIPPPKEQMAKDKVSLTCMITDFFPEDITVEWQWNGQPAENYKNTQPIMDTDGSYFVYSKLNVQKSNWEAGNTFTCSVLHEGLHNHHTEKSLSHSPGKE
T2 sequence (P08581 27-307 limits assumed, chain 2 of 2): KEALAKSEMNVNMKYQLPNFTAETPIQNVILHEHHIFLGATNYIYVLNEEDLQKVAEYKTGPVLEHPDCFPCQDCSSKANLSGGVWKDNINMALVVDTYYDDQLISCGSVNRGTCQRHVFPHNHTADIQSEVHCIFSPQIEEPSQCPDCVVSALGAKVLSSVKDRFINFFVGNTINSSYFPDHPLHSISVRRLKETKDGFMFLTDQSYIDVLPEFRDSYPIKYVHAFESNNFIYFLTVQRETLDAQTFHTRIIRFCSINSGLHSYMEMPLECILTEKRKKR
Method: as §1, §2

[3] = target: T1, hMet.mmh (human MET extracellular …); assay: SPR 37C, antibody captured; remark: listed apart in the source
Method: (§3) Kinetic association (kₐ) and dissociation (kd) rate constants were determined as described in Example 3.

human MET on cells [4] = target: T3, human MET on cells (human, UniProt P08581 25-1390); assay: cell-based or functional assay
T3 sequence (P08581 25-1390 limits assumed, form in doubt): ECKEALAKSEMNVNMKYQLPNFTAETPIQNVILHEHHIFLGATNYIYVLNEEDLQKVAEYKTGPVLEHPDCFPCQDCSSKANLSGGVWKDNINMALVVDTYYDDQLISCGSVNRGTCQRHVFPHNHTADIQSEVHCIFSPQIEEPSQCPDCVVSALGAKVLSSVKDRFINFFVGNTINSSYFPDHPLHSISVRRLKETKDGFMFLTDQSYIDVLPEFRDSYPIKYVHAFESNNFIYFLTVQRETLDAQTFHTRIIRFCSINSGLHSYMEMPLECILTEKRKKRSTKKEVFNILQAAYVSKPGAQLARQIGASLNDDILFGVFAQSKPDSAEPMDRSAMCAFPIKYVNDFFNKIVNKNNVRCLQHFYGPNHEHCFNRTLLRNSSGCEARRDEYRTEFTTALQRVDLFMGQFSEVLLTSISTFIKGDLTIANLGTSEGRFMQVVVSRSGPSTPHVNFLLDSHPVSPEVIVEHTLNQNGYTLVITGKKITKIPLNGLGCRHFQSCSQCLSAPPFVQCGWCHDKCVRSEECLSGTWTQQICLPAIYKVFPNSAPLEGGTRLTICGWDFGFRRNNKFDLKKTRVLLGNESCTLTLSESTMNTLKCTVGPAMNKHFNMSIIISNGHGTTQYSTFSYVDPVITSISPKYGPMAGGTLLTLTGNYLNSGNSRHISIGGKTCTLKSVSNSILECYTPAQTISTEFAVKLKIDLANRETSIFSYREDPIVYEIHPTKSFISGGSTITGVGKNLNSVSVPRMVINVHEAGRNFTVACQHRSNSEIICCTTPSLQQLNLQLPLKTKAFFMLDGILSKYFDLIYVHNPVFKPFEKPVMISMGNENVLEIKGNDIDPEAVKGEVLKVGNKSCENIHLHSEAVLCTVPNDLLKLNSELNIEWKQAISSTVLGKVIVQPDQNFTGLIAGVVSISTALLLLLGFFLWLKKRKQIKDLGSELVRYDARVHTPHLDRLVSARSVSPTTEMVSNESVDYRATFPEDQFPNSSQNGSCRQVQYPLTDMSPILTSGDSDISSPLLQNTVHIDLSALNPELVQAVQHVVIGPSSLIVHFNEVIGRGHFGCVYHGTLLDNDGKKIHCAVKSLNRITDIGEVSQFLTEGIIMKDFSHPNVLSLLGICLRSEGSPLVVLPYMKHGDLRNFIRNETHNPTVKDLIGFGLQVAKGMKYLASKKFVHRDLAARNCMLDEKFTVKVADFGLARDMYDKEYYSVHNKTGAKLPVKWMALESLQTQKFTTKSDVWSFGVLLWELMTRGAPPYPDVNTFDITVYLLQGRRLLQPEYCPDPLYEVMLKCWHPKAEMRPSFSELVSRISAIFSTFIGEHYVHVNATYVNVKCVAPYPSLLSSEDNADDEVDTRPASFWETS

human MET on cells [5] = target: T3, human MET on cells; assay: cell-based or functional assay; remark: listed apart in the source
human MET on cells [6] = target: T3, human MET on cells; assay: cell-based or functional assay; remark: listed apart in the source
[7] = target: T4, human MET (exon14 skip mutation) on NCI-H596 cells (human, UniProt P08581 25-1390); assay: cell-based or functional assay
human MET on cells [8] = target: T3, human MET on cells; assay: cell-based or functional assay; remark: listed apart in the source
[9] = target: T4, human MET (exon14 skip mutation) on …; assay: cell-based or functional assay; remark: listed apart in the source
human MET on cells [10] = target: T3, human MET on cells; assay: cell-based or functional assay; remark: listed apart in the source
human MET on cells [11] = target: T3, human MET on cells; assay: cell-based or functional assay; remark: listed apart in the source
human MET on cells [12] = target: T3, human MET on cells; assay: flow cytometry, 10 µg/ml antibody on A549 cells, Alexa647 anti-human secondary
Method: (§4) After one additional wash with FACS buffer, samples were fixed with Cytofix (BD Biosciences, #554655), filtered with FACS buffer and run on an iQue flow cytometer (Intelicyte). Mean fluorescence intensity (MFI) data was determined using FlowJo software (FlowJo LLC).

human MET on cells [13] = target: T3, human MET on cells; assay: flow cytometry, 10 µg/ml antibody on EBC-1 cells, Alexa647 anti-human secondary
Method: as §4

human MET on cells [14] = target: T3, human MET on cells; assay: flow cytometry, 10 µg/ml antibody on SNU-5 cells, Alexa647 anti-human secondary
Method: as §4

human MET on cells [15] = target: T3, human MET on cells; assay: flow cytometry, 10 µg/ml antibody on U87MG cells, Alexa647 anti-human secondary
Method: as §4

human MET on cells [16] = target: T3, human MET on cells; assay: flow cytometry, 10 µg/ml antibody on Hs746t cells, Alexa647 anti-human secondary
Method: as §4

human MET on cells [17] = target: T3, human MET on cells; assay: flow cytometry, 10 µg/ml antibody on MKN-45 cells, Alexa647 anti-human secondary
Method: as §4

human MET on cells [18] = target: T3, human MET on cells; assay: flow cytometry, 10 µg/ml antibody on MDA-MB-231 cells, Alexa647 anti-human secondary
Method: as §4

[19] = target: T1, hMet.mmh (human MET extracellular …); assay: SPR 37C, antibody captured; remark: listed apart in the source
Method: as §3

[20] = target: T5, MET (c-Met, hepatocyte growth factor receptor) on cells (human, UniProt P08581 25-1390); assay: cell-based or functional assay
T5 sequence (P08581 25-1390 limits assumed, form in doubt): as above

[21] = target: T5, MET (c-Met, hepatocyte growth factor …); assay: cell-based or functional assay; remark: listed apart in the source

T1 sequence (P08581 other isoform, or with tags, fused parts or gaps limits assumed, chain 1 of 2): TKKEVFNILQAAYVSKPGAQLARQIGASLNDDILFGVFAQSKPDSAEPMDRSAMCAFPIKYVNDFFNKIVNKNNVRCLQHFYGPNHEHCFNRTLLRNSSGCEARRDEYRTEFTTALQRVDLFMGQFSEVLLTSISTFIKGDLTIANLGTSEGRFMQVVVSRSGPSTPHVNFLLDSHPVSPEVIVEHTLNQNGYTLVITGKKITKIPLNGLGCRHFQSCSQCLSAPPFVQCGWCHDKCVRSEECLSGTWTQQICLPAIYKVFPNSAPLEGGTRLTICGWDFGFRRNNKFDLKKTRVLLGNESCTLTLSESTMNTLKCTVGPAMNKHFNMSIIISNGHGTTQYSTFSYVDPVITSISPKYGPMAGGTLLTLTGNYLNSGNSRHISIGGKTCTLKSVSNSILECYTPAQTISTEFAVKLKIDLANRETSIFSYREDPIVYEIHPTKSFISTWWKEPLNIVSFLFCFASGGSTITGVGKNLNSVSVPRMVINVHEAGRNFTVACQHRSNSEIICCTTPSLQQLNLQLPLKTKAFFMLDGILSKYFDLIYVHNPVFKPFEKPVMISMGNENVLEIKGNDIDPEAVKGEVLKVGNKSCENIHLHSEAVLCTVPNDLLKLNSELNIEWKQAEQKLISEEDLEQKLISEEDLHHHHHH
T1 sequence (P08581 27-307 limits assumed, chain 2 of 2): as the sequence (P08581 27-307 limits assumed, chain 2 of 2) above

B1: H4H13306P2 (antibody, human IgG4, V domains shown)
VH: EVQLVESGGGLVQPGTSLRLSCAASGFTFDDYAMHWVRQAPGKGLEWVSGITWNSYNIDYADSVKGRFTISRDNAKNSLYLQMNSLRAEDTALYYCAKDDDYSNYVYFDYWGQGTLVTVSS
VL: not shown
notes: human IgG4 Fc (H4H), bivalent monospecific; also called parental antibody 1; M1
Kd [1]: 109 nM
T½ [1]: 0.7 min
Kd [2]: 2.15 nM
T½ [2]: 4.4 min
T½ [3]: 0.7 min

B2: H4H14636D (bispecific antibody, human IgG4, V domains shown)
VH 1: EVQLVESGGGLVQPGGSLRLSCAASGFIFSNYEMNWVRQAPGKGLEWISYITSSGNMKYYADSVKGRFTISRDNDKNSLYLQMSSLRVEDTAVYYCVRGGRFLEWLTYYVMVVWGQGTTVTVSS
VH 2: EVQLVESGGGLVQPGGSLRLSCAASGFIVTTNYMTWLRQAPGKGLEWVSLIYSSGHTYYADSVKGRFTISRHNSKNTLYLQMDSLRAEDTAVYYCASAFAADVFDIWGQGTMVTVSS
VL: not shown
% Inhibition, HEK293/SRE-Luc Blocking Activity (HGF, 1 h mAb pre-bind) (human MET on cells [4]): 74%
EC50, Ligand (HGF)-Independent HEK293/SRE-Luc Activation (human MET on cells [4]): 0.28 nM
Fold Response, Ligand (HGF)-Independent HEK293/SRE-Luc Activation (human MET on cells [4]): 2.8 fold
Relative MET Level, SNU5 cells, 18 hrs (human MET on cells [5]): 0.5 relative to control (hFc)

B3: H4H14639D (bispecific antibody, human IgG4, V domains shown)
VH 1: B1 VH
VH 2: B2 VH 2
VL: not shown
notes: MET x MET bispecific, human IgG4; also called No. 122; MET×MET bispecific antibody
Relative Cell Growth (n = 3), EBC-1 cells, 0.1 µg/mL H4H14639D (human MET on cells [6]): 0.397 relative to control
Relative Cell Growth (n = 3), EBC-1 cells, 1 µg/mL H4H14639D (human MET on cells [6]): 0.462 relative to control
Relative MET Level, NCI-H596 cells, 18 h [7]: 0.24 relative to control (hFc)
Relative Cell Growth (n = 3), Hs746T cells, 5 µg/ml, 5 days (human MET on cells [8]): 0.647 normalized to control
Relative Cell Growth (n = 3), NCI-H596 cells in soft agar, 5 µg/ml, two weeks [9]: 1.07 normalized to control
Relative Cell Growth (n = 3), SNU5 cells, 5 µg/ml, 5 days (human MET on cells [10]): 0.271 normalized to control
IC50, 6-day in vitro cytotoxicity, A549 (human MET on cells [11]): 0.17 nM
IC50, 6-day in vitro cytotoxicity, EBC-1 (human MET on cells [11]): 0.37 nM
IC50, 6-day in vitro cytotoxicity, Hs746t (human MET on cells [11]): 0.44 nM
Max % Kill, 6-day in vitro cytotoxicity, A549 (human MET on cells [11]): 29%
Max % Kill, 6-day in vitro cytotoxicity, EBC-1 (human MET on cells [11]): 66%
Max % Kill, 6-day in vitro cytotoxicity, Hs746t (human MET on cells [11]): 35%

B4: H4H14635D (bispecific antibody, human IgG4, V domains shown)
VH 1: QVQLVESGGGVVQPGRSLRVSCVVSGFTFSSFGMHWVRQAPDKGLEWVAVIWYDGSNDYYSDSVKGRFTISRDNSKNTLFLQMNRLRAEDTAVYYCARANNWNRFDAFDLWGQGTMVTVSS
VH 2: B2 VH 2
VL: not shown
notes: MET x MET bispecific, human IgG4; also called No. 42
% Inhibition, HEK293/SRE-Luc Blocking Activity (HGF, 1 h mAb pre-bind) (human MET on cells [4]): 85%
EC50, Ligand (HGF)-Independent HEK293/SRE-Luc Activation (human MET on cells [4]): 1.4 nM
Fold Response, Ligand (HGF)-Independent HEK293/SRE-Luc Activation (human MET on cells [4]): 2.2 fold
IC50, HEK293/SRE-Luc Blocking Activity (HGF, 1 h mAb pre-bind) (human MET on cells [4]): 0.19 nM
Relative MET Level, SNU5 cells, 18 hrs (human MET on cells [5]): 0.27 relative to control (hFc)
IC50, 6-day in vitro cytotoxicity, A549 (human MET on cells [11]): > 100 nM
IC50, 6-day in vitro cytotoxicity, EBC-1 (human MET on cells [11]): > 100 nM
IC50, 6-day in vitro cytotoxicity, Hs746t (human MET on cells [11]): > 100 nM
Max % Kill, 6-day in vitro cytotoxicity, A549 (human MET on cells [11]): 0%
Max % Kill, 6-day in vitro cytotoxicity, EBC-1 (human MET on cells [11]): 11%
Max % Kill, 6-day in vitro cytotoxicity, Hs746t (human MET on cells [11]): 7%
FACS Binding (MFI Fold Above Isotype Control) (human MET on cells [12]): 12 fold above isotype control
FACS Binding (MFI Fold Above Isotype Control) (human MET on cells [13]): 263 fold above isotype control
FACS Binding (MFI Fold Above Isotype Control) (human MET on cells [14]): 477 fold above isotype control
FACS Binding (MFI Fold Above Isotype Control) (human MET on cells [15]): 18 fold above isotype control
FACS Binding (MFI Fold Above Isotype Control) (human MET on cells [16]): 39 fold above isotype control
FACS Binding (MFI Fold Above Isotype Control) (human MET on cells [17]): 183 fold above isotype control
FACS Binding (MFI Fold Above Isotype Control) (human MET on cells [18]): 11 fold above isotype control

B5: H4H14639D (bispecific antibody, human IgG4, V domains shown)
VH 1: B1 VH
VH 2: B2 VH 2
VL: not shown
notes: MET x MET bispecific, expressed as human IgG4; also called bispecific antibody No. 122; MET×MET bispecific antibody
T½ [19]: 70.8 min
koff [19]: 0.000163 s⁻¹
T½ [3]: 70.8 min
koff [3]: 0.000163 s⁻¹
IC50 (read off the curve); blocking of HGF-dependent SRE-driven luciferase signal in HEK293T cells [20]: ~0.4 nM

B6: H4H14640D (bispecific antibody, human IgG4, V domains shown)
VH 1: QVQLVQSGTEVKEPGASVKVSCKASGYSFTTYGISWLRQAPGQGLEWMGWISTYNGDTISAQMLQDRVTLTADTSTRTAYMELRSLRSDDTAVYYCARGHEYDSLVYSYWGQGTLVTVSS
VH 2: B2 VH 2
VL: not shown
% Inhibition, HEK293/SRE-Luc Blocking Activity (HGF, 1 h mAb pre-bind) (human MET on cells [4]): 89%
EC50, Ligand (HGF)-Independent HEK293/SRE-Luc Activation (human MET on cells [4]): 6.8 nM
Fold Response, Ligand (HGF)-Independent HEK293/SRE-Luc Activation (human MET on cells [4]): 2.5 fold
IC50, HEK293/SRE-Luc Blocking Activity (HGF, 1 h mAb pre-bind) (human MET on cells [4]): 0.52 nM
Relative MET Level, SNU5 cells, 18 hrs (human MET on cells [5]): 0.18 relative to control (hFc)

B7: H4H14637D (bispecific antibody, human IgG4, V domains shown)
VH 1: QVQLVESGGGVVQPGTSLRLSCVASGFTFRNFGMHWVRQAPGKGLEWVANIWFDGSNENYVESIQGRFTISRDNSKNTLNLQMNSLRAEDSAVYYCVREGILGTTNPYDAFDVWGQGTMVTVSS
VH 2: B2 VH 2
VL: not shown
% Inhibition, HEK293/SRE-Luc Blocking Activity (HGF, 1 h mAb pre-bind) (human MET on cells [4]): 73%
EC50, Ligand (HGF)-Independent HEK293/SRE-Luc Activation (human MET on cells [4]): 4.1 nM
Fold Response, Ligand (HGF)-Independent HEK293/SRE-Luc Activation (human MET on cells [4]): 2.1 fold
Relative MET Level, SNU5 cells, 18 hrs (human MET on cells [5]): 0.49 relative to control (hFc)

B8: H4H13312P2 (antibody, human IgG4, V domains shown)
VH: B2 VH 2
VL: not shown
notes: human IgG4 Fc (H4H), bivalent monospecific; also called parental antibody 2; M2
Kd [1]: 227 nM
T½ [1]: 0.7 min
Kd [2]: 2.79 nM
T½ [2]: 6.7 min
T½ [3]: 1.4 min
EC50 (read off the curve); HGF-independent SRE-driven luciferase signal in HEK293T cells [21]: ~0.5 nM
IC50 (read off the curve); blocking of HGF-dependent SRE-driven luciferase signal in HEK293T cells [20]: ~0.4 nM

B9: H4H14634D (bispecific antibody, human IgG4, V domains shown)
VH 1: QVQLQESGPGLVKPSETLSLTCTVSGDSISSYYWTWIRQPPGKGLEWIGYIFYRGGTTYNPSLKSRVTISVDTSKNQFSLKLRSVTAADTAVYYCARGDDLLVVTSVYWYIDLWGRGTLVTVSS
VH 2: B2 VH 2
VL: not shown
% Inhibition, HEK293/SRE-Luc Blocking Activity (HGF, 1 h mAb pre-bind) (human MET on cells [4]): 85%
EC50, Ligand (HGF)-Independent HEK293/SRE-Luc Activation (human MET on cells [4]): 0.09 nM
Fold Response, Ligand (HGF)-Independent HEK293/SRE-Luc Activation (human MET on cells [4]): 3.4 fold
IC50, HEK293/SRE-Luc Blocking Activity (HGF, 1 h mAb pre-bind) (human MET on cells [4]): 0.0097 nM
Relative MET Level, SNU5 cells, 18 hrs (human MET on cells [5]): 0.45 relative to control (hFc)
